Data on 17 molecules can be found in publication PMC7865074, “Role of PDZ-binding motif from West Nile virus NS5 protein on viral replication” (Scientific Reports, 2021).

Ends that are not written are not given here. A value given as a limit tells only on which side of the number the result lay.

T1: biotinylated WNV NS5 PBM peptide (West Nile virus, also: biotinyl group, end not given here)
T1 construct: bait of the holdup assay; also called 13-mer peptide; source: synthetic peptide (solid phase, Fmoc; Proteogenix)
T1 peptide: RYEDTTLVEDTVL

B1: Regulating synaptic membrane exocytosis protein 2, PDZ domain (holdup construct) (domain or fragment, human, UniProt Q9UQ26 668-754, looked up)
chain: DGSVPRDSGAMLGLKVVGGKMTESGRLCAFITKVKKGSLADTVGHLRPGDEVLEWNGRLLQGATFEEVYNIILESKPEPQVELVVSR
notes: also called RIMS2; source: E. coli, PDZome V.2 library, high-throughput expression
B2: PDZ domain-containing protein 7, PDZ domain 3 (holdup construct) (domain or fragment, human, UniProt Q9H5P4 862-934, looked up)
chain: TVTLSKMKQSLGISISGGIESKVQPMVKIEKIFPGGAAFLSGALQAGFELVAVDGENLEQVTHQRAVDTIRRA
notes: also called PDZD7_3; source: E. coli, PDZome V.2 library, high-throughput expression
B3: Membrane-associated guanylate kinase, WW and PDZ domain-containing protein 2, PDZ domain 2 (holdup construct) (domain or fragment, human, UniProt Q86UL8 426-510, looked up)
chain: STTLKKSNMGFGFTIIGGDEPDEFLQVKSVIPDGPAAQDGKMETGDVIVYINEVCVLGHTHADVVKLFQSVPIGQSVNLVLCRGY
notes: also called MAGI2_2; source: E. coli, PDZome V.2 library, high-throughput expression
B4: PDZ domain-containing RING finger protein 3, PDZ domain 1 (holdup construct) (domain or fragment, human, UniProt Q9UPQ7 249-339, looked up)
chain: TLVLHRDSGSLGFNIIGGRPSVDNHDGSSSEGIFVSKIVDSGPAAKEGGLQIHDRIIEVNGRDLSRATHDQAVEAFKTAKEPIVVQVLRRT
notes: also called PDZRN3_1; source: E. coli, PDZome V.2 library, high-throughput expression
B5: Disks large homolog 4, PDZ domain 3 (holdup construct) (domain or fragment, human, UniProt P78352 313-393, looked up)
chain: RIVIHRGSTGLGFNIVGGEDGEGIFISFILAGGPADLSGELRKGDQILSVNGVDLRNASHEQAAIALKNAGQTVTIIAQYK
notes: also called DLG4_3; source: E. coli, PDZome V.2 library, high-throughput expression
B6: MAGUK p55 subfamily member 5, PDZ domain (holdup construct) (domain or fragment, human, UniProt Q8N3R9 256-336, looked up)
chain: IVRIEKARDIPLGATVRNEMDSVIISRIVKGGAAEKSGLLHEGDEVLEINGIEIRGKDVNEVFDLLSDMHGTLTFVLIPSQ
notes: also called MPP5; source: E. coli, PDZome V.2 library, high-throughput expression
B7: PDZ domain-containing protein GIPC3, PDZ domain (holdup construct) (domain or fragment, human, UniProt Q8TF64 112-192, looked up)
chain: EVEVTKTEDALGLTITDNGAGYAFIKRIKEGSIINRIEAVCVGDSIEAINDHSIVGCRHYEVAKMLRELPKSQPFTLRLVQ
notes: source: E. coli, PDZome V.2 library, high-throughput expression
B8: Rho GTPase-activating protein 21, PDZ domain (holdup construct) (domain or fragment, human, UniProt Q5T5U3 50-159, looked up)
chain: TVTLKRTSQGFGFTLRHFIVYPPESAIQFSYKDEENGNRGGKQRNRLEPMDTIFVKQVKEGGPAFEAGLCTGDRIIKVNGESVIGKTYSQVIALIQNSDTTLELSVMPKD
notes: also called ARHGAP21; source: E. coli, PDZome V.2 library, high-throughput expression
B9: 26S proteasome non-ATPase regulatory subunit 9, PDZ domain (holdup construct) (domain or fragment, human, UniProt O00233 108-195, looked up)
chain: QARDMAEAHKEAMSRKLGQSESQGPPRAFAKVNSISPGSPASIAGLQVDDEIVEFGSVNTQNFQSLHNIGSVVQHSEGKPLNVTVIRR
notes: also called PSMD9; source: E. coli, PDZome V.2 library, high-throughput expression
B10: Microtubule-associated serine/threonine-protein kinase 1, PDZ domain (holdup construct) (domain or fragment, human, UniProt Q9Y2H9 967-1055, looked up)
chain: PITIQRSGKKYGFTLRAIRVYMGDTDVYSVHHIVWHVEEGGPAQEAGLCAGDLITHVNGEPVHGMVHPEVVELILKSGNKVAVTTTPFE
notes: also called MAST1; source: E. coli, PDZome V.2 library, high-throughput expression
B11: Protein scribble homolog, PDZ domain 3 (holdup construct) (domain or fragment, human, UniProt Q14160 1004-1093, looked up)
chain: EIRLPRAGGPLGLSIVGGSDHSSHPFGVQEPGVFISKVLPRGLAARSGLRVGDRILAVNGQDVRDATHQEAVSALLRPCLELSLLVRRDP
notes: also called SCRIB_3; source: E. coli, PDZome V.2 library, high-throughput expression
B12: Synaptojanin-2-binding protein, PDZ domain (holdup construct) (domain or fragment, human, UniProt P57105 13-100, looked up)
chain: EINLTRGPSGLGFNIVGGTDQQYVSNDSGIYVSRIKENGAAALDGRLQEGDKILSVNGQDLKNLLHQDAVDLFRNAGYAVSLRVQHRL
notes: also called SYNJ2BP; source: E. coli, PDZome V.2 library, high-throughput expression
B13: SH3 and multiple ankyrin repeat domains protein 2, PDZ domain (holdup construct) (domain or fragment, human, UniProt Q9UPX8 626-720, looked up)
chain: TVVLQKKDNEGFGFVLRGAKADTPIEEFTPTPAFPALQYLESVDEGGVAWQAGLRTGDFLIEVNNENVVKVGHRQVVNMIRQGGNHLVLKVVTVT
notes: also called SHANK2; source: E. coli, PDZome V.2 library, high-throughput expression
B14: Membrane-associated guanylate kinase, WW and PDZ domain-containing protein 1, PDZ domain 2 (holdup construct) (domain or fragment, human, UniProt Q96QZ7 472-554, looked up)
chain: HTKLRKSSRGFGFTVVGGDEPDEFLQIKSLVLDGPAALDGKMETGDVIVSVNDTCVLGHTHAQVVKIFQSIPIGASVDLELCR
notes: also called MAGI1_2; source: E. coli, PDZome V.2 library, high-throughput expression
B15: Membrane-associated guanylate kinase, WW and PDZ domain-containing protein 3, PDZ domain 2 (holdup construct) (domain or fragment, human, UniProt Q5TCQ9 410-492, looked up)
chain: RASLKKSTMGFGFTIIGGDRPDEFLQVKNVLKDGPAAQDGKIAPGDVIVDINGNCVLGHTHADVVQMFQLVPVNQYVNLTLCR
notes: also called MAGI3 _2; source: E. coli, PDZome V.2 library, high-throughput expression
B16: PDZ domain-containing protein 4, PDZ domain (holdup construct) (domain or fragment, human, UniProt Q76G19 130-214, looked up)
chain: EVELYKSSHRDKLGLMVCYRTDDEEDLGIYVGEVNPNSIAAKDGRIREGDRIIQINGVDVQNREEAVAILSQEENTNISLLVARP
notes: also called PDZD4; source: E. coli, PDZome V.2 library, high-throughput expression
B17: Protein scribble homolog, PDZ domain 1 (holdup construct) (domain or fragment)
chain: not shown
notes: also called SCRIB_1; source: E. coli, PDZome V.2 library, high-throughput expression

In this test the target is T1, biotinylated WNV NS5 PBM peptide. As to the kind of experiment: holdup assay (automated high-throughput chromatography); biotinylated NS5 PBM peptide as bait against 259 human PDZ domains expressed in E. coli; read-out binding intensity (BI), mean of replicates; BI threshold 0.2 for a significant interaction.
As for B1, the “BI (holdup binding intensity)” value was < 0.15.

For B2, the “BI (holdup binding intensity)” value was 0.27.

As for B3, the “BI (holdup binding intensity)” value came to 0.38.

For the molecule B4, the “BI (holdup binding intensity)” value was 0.35.

Take B5: the “BI (holdup binding intensity)” value worked out at 0.24.

Consider B6, for which the “BI (holdup binding intensity)” value is < 0.15.

B7: the “BI (holdup binding intensity)” value is < 0.15.

Turning to B8, the “BI (holdup binding intensity)” value amounted to 0.3.

For B9, the “BI (holdup binding intensity)” value was < 0.15.

As to B10, the “BI (holdup binding intensity)” value worked out at 0.52.

Turning to B11, the “BI (holdup binding intensity)” value was 0.33.

For B12, the “BI (holdup binding intensity)” value is 0.21.

With B13, the “BI (holdup binding intensity)” value was found to be 0.39.

Consider B14, for which the “BI (holdup binding intensity)” value stood at 0.55.

Regarding B15, the “BI (holdup binding intensity)” value was found to be 0.61.

On to B16, for which the “BI (holdup binding intensity)” value is < 0.15.

As to B17, the “BI (holdup binding intensity)” value came out at 0.27.
